{"source": "patent US8246957", "key": {"[1]": {"molecular_target": "gp120 of HIV-1 primary isolate BR004 (clade C) (HIV-1 strain BR004)", "assay": "cell-based or functional assay"}, "[2]": {"molecular_target": "gp120 of HIV-1 primary isolate SF-162 (clade B) (HIV-1 strain SF-162)", "assay": "cell-based or functional assay"}}}
{"substance": "IgG clone b12 (antibody)", "values": [{"measurement": "IC50, HIV-1 neutralization (p24, PBMC hosts) (µg Ab fragment/ml)", "setting": "[1]", "value": 9}, {"measurement": "IC90, HIV-1 neutralization (p24, PBMC hosts) (µg Ab fragment/ml)", "setting": "[1]", "value": 333}, {"measurement": "IC50, HIV-1 neutralization (p24, PBMC hosts) (µg Ab fragment/ml)", "setting": "[2]", "value": 1.1}, {"measurement": "IC90, HIV-1 neutralization (p24, PBMC hosts) (µg Ab fragment/ml)", "setting": "[2]", "value": 14.1}]}
